Results on 22 sequences are retold here after a protein production outcome set (Wang et al. 2014).

The series in a line: label from the status in PepcDB records.
Take “MILTLLQNGDYETARTQALTELKNNSDNAELHYYAAWAHDALGKEDAAIPFYEKALQLGLPADSRKEAYIGLGSTYRITGQPEKSIRLFETALQEFPDNNALRTFSVMAKYNQGLEKEALEEALMLLTQTTSDEDILSYKKAIQFYAQDLDATFHLEHHHHHH”: the protein production result is given as “not failed”. Regarding “MILVATKPKDSRGSSSDEMMMNDLDEIIFGENSLGHSSSASGNDQKKQKSSKNNELIHL”, the protein production result is reported as “failed”. With “MIMKKYWKLMLMAVGMSAAFTLASCNDDKDVVIDQIYYISTDPSATTYPTTFSVSLVDNSVAGRPFFYVVGKSTMRVDRNTTLRVEEDSKLVEKYNETYGKKYLPFPEGTYSFSTNEVTINQGDNFSSDTIFISFSNWDKLSKIDKYLLPVSLKAVDDKGAVSMDRNLIYFIADFSTTNTGYNKPAAWKPLDRTDWDVSFSYAYGYDEAQFGGRLAVDGDVSTTWFTWGVVSAGECWWATTLPAPTHLTGFSLTRQTTFGSSYNVREAKVKVKKEGDTEWTEAGLFRFGSFKGNDPQYAVFIPAVENVKEFRIDIVSPADFTGFAELDLYQ”, the protein production result is “failed”. For the sequence “MIMLNKQGITISLCMIVRDEEETIARCLETVEKIVDEIIVVDTGSVDRTKEIVEKYTSNIYDFQWIDDFAAARNFSFSKATQEYILWLDADDVLLEDAQEALKLLKRELDPKIDAVSMPYHLAMDSNGKPLYCTKRNRLVKREKQFQWFGKVHEYLAISGEVFSSNVAITHKKEKKVTNRNLKIFQNTVAAGEELSPRDLFYYANESTDNQKYDDAVLLYETFLNQDEGWYEEKIYACGKLGDCYAKLGMWEKAIESCVKSFRYDVPRGENCTRIGYIYMEQEKYNEAIFWFKLATEVPMATESPFHSPASYTWLPYLQMCICYSRLGEQDKAYYYNELAASYVPNNAAIEYNRKYFRGVFDKPYKV”, the protein production result is recorded as “failed”. With “MIMNTKERSLLGSWIIWSVAYYMYYPFISIYLSRFVEESKLSLFFVVFQAVSLPLPLIGARLSKRNRILPIIIGMLVGGIGMIMLPFSRNILEATIFMSLNYFISLSLPSYYSLMSEVGEGTITRIWSLSILPSIIMPSLGGLLAQYFGLRLLFMIGGIVLATSFLPMVNSSYNSSSQSLLNFNITIRSFLPAILILPIAMEFPYIYLVVYNYFHLTKEYVGIIATSAEILGMLLTYLASKLIFRKKYLLSLSLFLFSLTSLYFLSPTIAIFFGCWEVIVPLTLEYFSSRKTVYDFALITTMQGLGWVLGYLIDYFIPNISLLLLSSSLIAFLLALMIVFTKD”, the protein production result is recorded as “failed”. Under “MIMVSGCQQQKEETPFYYGTWDEGRAPGPTDGVKSATVTFTEDEVVETEVMEGRGEVQLPFMAYKVISQSTDGSIEIQYLGPYYPLKSTLKRGENGTLIWEQNGQRKTMTRIESKTGREEKDEKSKSLEHHHHHH” stands “not failed”; under “MINAISPFQVQNTQNTQNATNQVNNSQKTDSSNQTSFSELLKNSISSLNESQVASDNMTNALAAGKDVNLDEVMIAAQKASISLTAATEFRNKAVEAYQEIMRMQM”, “not failed”. Under “MINEIGHYVLVLALGVGLIVSTLPVIGARRNDRALMDVASLGSVLMFLLVGFSFAALTHAYAVSDFSVRNVWENSHSLMPMLYKLTGVWGNHEGSMLLWLLILVFFSALVAAFGGNLPETLKANVLAVQAWISVAFLLFILLTSNPFLRLERVPAEGQDLNPILQDFGLAIHPPLLYLGYVGFSVCFSFAVAALLEGRIDAAWARWVRPWTLAAWTFLTAGISMGSYWAYYELGWGGWWFWDPVENASFMPWLAGTALLHSALVMEKREALKIWTVLLAIMTFSLSLLGTFLVRSGVLTSVHAFATDPSRGIFILGILTIFIGGAFALFAWRAPSLKAGGLFAPISREGALVLNNLILTVSTATVLIGTLYPLILETLTGEKISVGAPFFNLTFGLLMIPVLIVTPFGPMLAWKRGDLLGAFQRLYVAAAIAALAGLTLWYIENGGPVLAALGIAAGFWLIFGALTDLWYRANFGKLAFGIAFRRLKGLPRSAFGTALAHMGLGITVLGIVIVTTYETETVLEMKQGTVAEAGGYSLTFDGIRHAVGPNFTEDRGHFTVRKAGVEVADVWSSKRLYTARRMPTTEAGILTFGLSQLYVSLGDPMADGGMVVRIWWKPFILCIWGGTLFMMAGGFISLSDRRLRVGAPTRKAKPVRAAMPEAAE” stands “failed”; under “MINIVIPMAGAGSRFAQAGYKKPKPFIDVLGRPMICHVLDNLNMPDARFILLTRKEHFENEQETVNWIKSKYNVEFVLIDNLTEGAACTVLHAHKLIDNNTPLLIANSDQIVDMNIAEFINDSENRNLDGSVLCFKDHDTKWSYAKIDGEGLITEIREKVVISEFATVGIYYFAKGGFFVKNAIDMIIRNERVKNEFYVAPVYNFGIQEGLKFGIFNININQMHGIGTPTDLNVYIDLVQRNKLEHHHHHH”, “not failed”.

On to “MINLAVLGLYLLIGFILKRTGKCPENSAQVLNLYVIYAALPGVIFSKVPALEFSTDLLIPVVIPWVLLAFSAVFIWLLGRAFKWPREVVGALLICVPLGNTSFFGFPMIEAFYGSDAIVYGLLYDQFGSFFGLAIYSTIVIALYREQDNKPTVASVTRQIVTFPPFIALIIALLTKSLVYPEVFQRLIDSLAVTLVPVIMIAVGFQLKFRLPKGSKTPLTIGLLTKLVLMPLITVGLLYGFGFDSTLVQVTIFESAMPPMITAGAVAIMAGLAPRLSAAMVGYGILFAFVSLPIVYQLLQLLSAH”, for which the protein production result is listed as “failed”.

Take “MINQRMIHMKNTKLLLAIATSAALLTGCQNTHGIDTNMAISSGLNAYKAATLSDADAKAIANQGCAEMDSGNQVASKSSKYGKRLAKIAKALGNNINGTPVNYKVYMTSDVNAWAMANGCVRVYSGLMDMMNDNEIEGVLGHELGHVALGHSLAEMKASYAIVAARDAISATSGVASQLSRSQLGDIAEGAINAKYSRDKESEADDFSFDLLKKRGISTQGLVGSFETLASLDGGRTQSMFDSHPPSTERAQHIRDRIASGKLEHHHHHH”: the protein production entry was “failed”. “MINRDFIISFIVVTCIIYLIYVCYGKYLEKKQIYLKTLTIFLIIEVLRRIFIYGKVNNRLISGLSFIQLIFLGISVAMYGLMYFKNNLS”: the protein production entry is listed as “failed”. As for “MINRVPTNIITGFLGVGKTTAILHLLATKPAHEKWAVLVNEFGEIGIDGAIMSEQGAMIKEVPGGCLCCTAGVPMSVGINALLRQKPDRLIIEPTGLGHPKQVVATLISEQYQPYVDLKATIALMDPRHLSMDKYRSNQNFNDQLASADIVLGNKVDQCSSSDIDAFNDWVTDQTPAKTFSQLIKQGQFPIELLDMPRLVGHASTHIDSHHHHHAADEPQFQLAPQQPFLRKENRGQGYFSCGWLFGAEYQFNFDLLFQLLNDLTAERVKGVLNTDRGCYAFNVANGVVSVTEMSLDGFESRLEVIDSQLMPWSELESILLKIAGIPQALEHHHHHH”, the protein production result is listed as “failed”. The result for “MINSGTLITKIEELQSTLAKMDIALGTVDEAIVWTDGTGQIQWCNTAFDHLMGKLHILILGKNLVELLPLHRNSQPLEVSHHPFTIIVATQQKFTDHYEFNQNGKWLHLEIMTSPLMNAQGAVLVIRDISDRHLQEQTLQQLNENLEKRVLERTQAVSLIN” reads “failed”; that for “MIPDELKHYLTDDWYAVVREHKLLELPAKVTVQQISEQYLAHKKSVKSTSASKEVAINDVLDGIVEYFNVMLGSQLLYKFERTQYADVMQKHPDTPLSELYGSFHLLRLFVRLGSMLSYSALDQQSMQNLLTHVQDFLKFLVKNSSIFFSMSNFINVDPEYVRNAQ”, “failed”. The result for “MIPEIAGLPALEWTSSAGHASYDEAEATLTLAAASGVDWTNDSLGGEPQHGATALGFRAPAAFSLSARVLVASPRTTFDAGVLTLWADSDHWAKLCFEYSPQGEAMVVSVVTNGYSDDSNGPVVTAPWVYLRVSRVGPAWAFHSSTDGRDWSLVRLFRLDTEKPVHVGFMSQAPMGDGCEARFDAIELKEEPPAELRDGS” reads “failed”; that for “MIPFKDITLADRDTITAFTMKSDRRNCDLSFSNLCSWRFLYDTQFAVIDDFLVFKFWAGEQLAYMMPVGNGDLKAVLRKLIEDADKEKHNFCMLGVCSNMRADLEAILPERFIFTEDRAYADYIYLRSDLATLKGKKFQAKRNHINRFRNTYPDYEYTPITPDRIQECLDLEAEWCKVNNCDQQEGTGNERRALIYALHNFEALGLTGGILHVNGKIVAFTFGMPINHETFGVHVEKADTSIDGAYAMINYEFANRIPEQYIYINREEDLGIEGLRKAKLSYQPVTILEKYMACLKDHPMDMVRW”, “not failed”; that for “MIPLSESFESGIPAIWKTIDADGDGYNWMHLTNFTGQSGLCVSSASYIGGVGALTPDNYLITPELKLPTDALVEIIYWVCTQDLTAPSEHYAVYSSSTGNNAADFVNLLYEETLTAKRIQSPELIRGNRTQGVWYQRKVVLPNDTKYVAFRHFNSTDNFWLNLDEVSILYTPLPRRA”, “not failed”. Under “MIPMFTVTLEDSGTLWKSLHSSSESEMTTLPPLPMTRPKLTALARQKLPCSSRKIPRSQLIKEKDDIDHYLEVNFKGLSKEEVAAYRNSYKKNICVDMLRDGYHKSFTELFALMERWDALREAARVRSLFWLQKPLEEQPDKLDYLYHYLTRAEDAERKESFEDVHNNLYALACYFNNSEDKWVRNHFYERCFKIAQLIKIDCGKKEAEAHMHMGLLYEEDGQLLEAAEHYEAFHQLTQGRIWKDETGRSLNLLACESLLRTYRFLSDKMLENKEYKQAIKILIKASEIAKEGSDKKMEAEASYYLGLAHLAAEEYETALTVLDTYCKISTDLDDDLSLGRGYEAIAKVLQSQGEMTEAIKYLKKFVKIARNNFQSLDLVRASTMLGDIYNEKGYYNKASECFQQAFDTTVELMSMPLMDETKVHYGIAKAHQMMLTVNNYIESADLTSLNYLLSWKESRGNIEPDPVTEEFRGSTVEAVSQNSERLEELSRFPGDQKNET” stands “failed”; under “MIPQIPLPMLSEGKDCKIREVLAGKALKRRLTEMGFTPSSSIRLIGCERGNLLVNVNGARYALGKGMAMKIMVEPD”, “failed”. As for “MIPRCLINQILRLAQASPEREVCGLVGAAAGRRMRCYPVPNVAERPECRFLLDPKGQIDALRAMRERGEELFAIFHSHPTAAAIPSPADLEFAAYPEALHLIVSLGTKGVLEMRGFRIGSSSRPREVELLLAPELEHHHHHH”, the protein production entry is reported as “failed”.

Regarding “MIPTATYRLQFRNGMTFDRAAALVPYLKNLGISHLYASPIFTATKASTHGYDVTDANEIEPSIGGREGFERLVAELKAQGLGLIIDIVPNHMASSLENAWWRDVLEYGKESRYARHFDIDWSRRLTLPFLGDTFDAVLENGEIAIKPDPATGKPAFAYYDNYYPLAPATWQGREAEILALTDKAAIADLHERQPWKLMSWRDAARSLSYRRFFEVTGLVGMRVEDKTVFDDTHRLILELVRTGAVDGLRIDHIDGLADPKAYLARLRQEVGPACYITVEKILAKGEQLPDDWPVSGTTGYEFIASLAEVLVDDEQIDNLRQAYETVKGAPVDMRAELRAAKLLMVDRNFEGEFTRLLALALSIASELQIAQEESVVRQALRELLIAFPVYRTYGTAEGLPPTDICLLHRIVERVKTLETPPQPEALTFLSRLLTGDVPASSQEEATQFRVRFQQLTGPLMAKSVEDTLFFRQNMGLALNEVGAEPVTHHFSIERFHHEMKTRQARQPDALSGTSTHDTKRGEDARARLYTLTEAPEQWSECLARWRQMNQTHVKFLNDGTAPKSADTWMLYQALTGVWPPVLQPQDETGLNALKTRFEAFVEKALREAKLRTDWVDSNEAYETAMLDYARYLLAPDNQTFLQDFYRSLQPFIRAGLVNSLTQTVIKLTAPGVPDIYQGSEALNFSLVDPDNRREPDFATLAQQLDQLTPGVFSREESWLNGQVNQYVTAALLRLRQQNHELFRFGDYIPLRAVGQRADKVIAYARVNHDDALIVVAPRLVFAECDGLLSQSHSGFWSGTDIIIPGQLNQHRYRNVLTQERLMPGERLSLASHQGGVLVLMSD”, the protein production result is “failed”.
